Publication PMC4477864
pKd: −log10 of the molar value.

Experiments:
[1] = molecular target: subtilisin-treated Taxol-stabilized MTs (S-MTs) (cow) (UniProt Q2T9S0); experiment: TIRF microscopy of MT-associated GFP fluorescence
[2] = molecular target: tubulin purified from cow brain (phosphocellulose-purified), assembled as vinblastine-induced curls, (cow) (UniProt Q2T9S0); experiment: co-sedimentation
[3] = molecular target: CENP-F N558 (amino acids 1–558) (human); experiment: sucrose gradient sedimentation + SEC

Chain of subtilisin-treated Taxol-stabilized MTs (S-MTs) (cow) (Q2T9S0 whole entry, looked up): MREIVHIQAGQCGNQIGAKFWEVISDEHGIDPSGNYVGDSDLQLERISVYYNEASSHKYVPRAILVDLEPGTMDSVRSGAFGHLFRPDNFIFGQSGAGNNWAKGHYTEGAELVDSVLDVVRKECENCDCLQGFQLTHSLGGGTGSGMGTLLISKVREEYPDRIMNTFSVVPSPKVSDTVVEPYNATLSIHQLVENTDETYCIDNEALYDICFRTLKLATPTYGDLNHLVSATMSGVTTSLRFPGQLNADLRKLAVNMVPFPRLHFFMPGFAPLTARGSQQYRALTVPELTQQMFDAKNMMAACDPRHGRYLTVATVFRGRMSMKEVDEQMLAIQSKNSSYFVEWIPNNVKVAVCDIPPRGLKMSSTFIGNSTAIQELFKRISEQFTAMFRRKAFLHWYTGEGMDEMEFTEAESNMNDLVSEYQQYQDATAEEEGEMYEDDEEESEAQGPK

| fold reduction of MT-associated GFP fluorescence against untreated MTs [1] [fold] | pKd [2] | fold lower KD than for Tx-MTs [2] [fold] | fold stronger binding than to Tx-MTs [2] [fold] | stoichiometry N [3] | Substance |
| --- | --- | --- | --- | --- | --- |
| 8 |  |  |  |  | N436-sfGFP (CENP-F amino acids 1–436 fused to super-folding GFP) (domain or fragment) |
|  | 7.80 | > 5 | < 2 | 2 | CENP-F N558 (amino acids 1–558) (domain or fragment) |
